Data set [1] is described as follows: In vivo pharmacokinetics and biodistribution. Here is the method:
Samples were dried under a N2 stream, reconstituted in 100 μl of 80% v/v LC-MS grade MeOH/H2O. 10 μl of the sample solution was injected into Waters Acquity/Xevo-G2 UPLC/MS system (Milford, MA) for analysis.
For tissue analysis, an optimized amount of tissue sample was processed using a tissue homogenizer in 5 volumes of 90% v/v LC/MS grade MeCN/H2O. 100 μL Tissue homogenate was mixed with 90 μL of 90% v/v LC/MS grade MeCN/H2O, 10 μL of LC-MS-grade water, and 10 μL 500 ng/ml Emtricitabine solution (as IS). After extraction, 10 μl of the sample solution was injected into Waters Acquity/Xevo-G2 UPLC/MS system (Milford, MA) for analysis.

In a further data set the test system is HBV. Format: cell-based, hepatitis B virus. The note with it: HepAD38 cells, qPCR of cellular supernatant; FIG. 5 legend; read-out: IC50, reduction of HBV production. Here is the method: Anti-HBV efficacy was evaluated on HepAD38 cells, using an adaptation of a procedure described in Ladner, Antimicrob. Agents Chemother. 41: 1715-20, 1997, incorporated herein by reference. HepAD38 cells were plated on collagen coated 96-well flat-bottomed plates at a density of 6×10^4 cells/well and grown for 3 days in the presence of 200 μL of Ham's F-12K (Kaighn's) Medium supplemented with 10% fetal bovine serum (FBS), 1% of an antibiotic solution (penicillin and streptomycin), and 0.3 mg/mL tetracycline at 37° C. in 5% carbon dioxide. On day zero the cells were washed with PBS and treated with tetracycline-free F-12K medium containing TFV, TFV-PA2, or TFV-PA3 (180 μL of medium supplemented with 20 μL of 10× concentration therapeutic solution to give 200 μL of medium at the final therapeutic concentration). Each therapeutic was screened at a minimum of five concentrations in quadruplicate. Water treated cells (180 μL of medium supplemented with 20 μL of H2O) were used as the negative control. On day three the medium was removed and replaced with 200 μL of fresh tetracycline-free medium containing the test compound at the appropriate concentration. […] HBV DNA was quantified by qPCR, using Integrated DNA Technologies PrimeTime Gene Expression Master Mix (Integrated DNA Technologies, Coralville, IA) and HBV TaqMan primer/probe (20×, Assay ID Vi03453405_s1, ThermoFisher Scientific, Pittsburgh, PA). A serial dilution of gBlocks Gene Fragments (Integrated DNA Technologies, Coralville, IA) of known HBV copy number was used as the standard for the absolute quantification of DNA copy number from cycle threshold values. […] Percent HBV production for each therapeutic concentration was determined based on average number of copies of HBV DNA produced by water treated cells and averaged between the three biological repeats of the assay before being plotted against concentration. […]
(In general: Real-time PCR tracks product formation cycle by cycle.)

The conditions of data set [2]: cited from earlier work.
The nature of data set [3]: Stability of TFV-PAs and redox triggered release of free TFV (with/without DTT). The class given is in vitro ADME. Particulars: 37° C.; for prodrug stability without DTT: 100 μM in 1× PBS, absence of DTT; for TFV released: 100 μM, 10 mM DTT, 1× PBS. Here is the method: Stability of the TFV-PAs and redox triggered release of free TFV was assessed by aging TFV-PA solutions in the presence and absence of 10 mM dithiothreitol (DTT). 200 µM solutions of TFV-PA2 and TFV-PA3 solutions were prepared using deionized H2O and allowed to age at RT for 24 hours. A 20 mM solution of DTT was prepared by diluting a stock 1 M DTT solution with 2× phosphate buffered solution (PBS). 500 μL of 2× PBS was added to an equal volume of each TFV-PA solution to give the DTT negative samples with a final TFV-PA concentration of 100 μM in 1× PBS. 500 μL of 20 mM DTT solution was added to an equal volume of each TFV-PA solution to give the DTT positive samples with a final TFV-PA concentration of 100 μM and 10 mM DTT in 1× PBS. Each experimental condition was prepared in triplicate. Solutions were allowed to age at 37° C. and 50 μL samples were collected at predetermined time points (0, 1, 2, 4, 8, 12, 24, 48, and 72 h), flash frozen in liquid nitrogen, and then stored in a −20° C. freezer. 2 μL of hydrochloric acid was added to the DTT positive samples upon collection to quench the reaction. Samples were thawed and immediately analyzed using the Agilent Infinity II RP-HPLC. The relative proportions of remaining TFV-PA were determined using the ratio of the AUC of the TFV-PA peak in the 260 nm chromatograph to that of the 0 hour samples. For select samples, 1 μL of solution was diluted in 900 μL MeOH and 100 μL 0.1% aq. formic acid and subjected to ESI MS to identify the molecules in the sample.

Data set [4] can be described thus: In vitro prodrug release from TFV-PA hydrogels. Format: physicochemical. Particulars: day 30, in vitro. The procedure:
To study gel release, 5 mM and 10 mM solutions of TFV-PA2 and TFV-PA3 were prepared using deionized water and allowed to age at RT for 48 hours. 45 μL of each solution was aliquoted into three 0.5 mL microcentrifuge tubes and 5 μL of 10× PBS was added to each vial to form a hydrogel with a final concentration of 1× PBS. Gels were allowed to set for 5-10 minutes before 60 μL of 1× PBS was added to the surface as the release media. The vials were then allowed to age at 37° C. Every 2 days, 50 μL of gel release supernatant was collected and replaced with an equal volume of fresh 1× PBS. Samples were frozen and stored at −20° C. for future analysis by RP-HPLC. On select days, 5 μL of release supernatant was collected 24 hours after supernatant exchange and used to prepare a negatively stained transmission electron microscope grid for analysis with the Talos transmission electron microscope. The grid was prepared as described above, except the sample was blotted with 5 μL deionized water (wicked immediately) after the sample was wicked away to remove excess salts from the PBS. Once the release experiment was complete, samples were thawed and 1-2 mg of TCEP was added to 25 μL sample solution and an equal volume of acetonitrile, then vortexed and sonicated at 37° C. for 10 minutes to ensure complete cleavage of the TFV moiety from the TFV-PAs. […]

Residues, ends and D or L forms follow the SMILES beside them. *: point of attachment. X1 = C[C@H](Cn1cnc2c(N)ncnc21)OCP(=O)(O)OCCS*; Palmitoyl = CCCCCCCCCCCCCCCC(=O)*

For orientation: MRT means the average time that molecules of a dose stay in the body. A word on the IC50: it is the midpoint of a concentration-inhibition curve. The term log P denotes the decadic logarithm of the partition coefficient of the neutral form, usually between octanol and water.

As for `Nc1ccn([C@@H]2CS[C@H](CO)O2)c(=O)n1` [3TC, 2′,3′-Dideoxy-3′-Thiacytidine], the “drug levels after free drug administration” value in data set [1] (after three days, mice) is listed as “below detection”. Further, the MRT in data set [1] (male, Balb/cJ, mouse, in vivo, sc, 75 mg/kg) is 50.4 h.

`C[C@H](Cn1cnc2c(N)ncnc21)OCP(=O)(O)O` [TFV, tenofovir, reference compound]: the half-inhibitory concentration (IC50) with HBV came to 1.1 µM. In data set [2], the “log P” value is given as −2.5.

`CCCCCCCCCCCCCCCC(=O)N[C@H](C(=O)N[C@H](C(=O)N[C@@H](CSSCCOP(=O)(O)CO[C@H](C)Cn1cnc2c(N)ncnc21)C(=O)N[C@@H](CCC(=O)O)C(=O)O)C(C)C)C(C)C` [TFV-PA2] (Palmitoyl-VVC(X1)E-OH): in data set [3], the “prodrug stability without DTT” value is “stable at 37 °C and in 1× PBS for 3 days”. Besides, the TFV released entry in data set [3] (after 1 hour) is on record as “more than 90%”; in data set [3] (by 24 hours) it was “all TFV released”. Further, the concentration for half-maximal inhibition (IC50) in the data set with HBV stood at 1.5 µM.

On to `CCCCCCCCCCCCCCCC(=O)N[C@H](C(=O)N[C@H](C(=O)N[C@H](C(=O)N[C@@H](CSSCCOP(=O)(O)CO[C@H](C)Cn1cnc2c(N)ncnc21)C(=O)N[C@@H](CCC(=O)O)C(=O)O)C(C)C)C(C)C)C(C)C` [TFV-PA3] (Palmitoyl-VVVC(X1)E-OH), for which, in data set [4], the “initial prodrugs remaining in hydrogel” value is “more than 80%”. Besides, the “prodrug stability without DTT” value in data set [3] is “stable at 37 °C and in 1× PBS for 3 days”. Moreover, the values for the TFV released entry in data set [3] (after 4 hours) and in data set [3] (by 24 hours) were “more than 70%” and “all TFV released”, respectively. In the data set on HBV, the IC50 was 0.25 µM.
